Experiment: yeast display, Sf9 membrane polyspecificity reagent, FACS + sequencing; frameworks hold sequencing errors
Summary of the method: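 Nanobodies came from a synthetic yeast display library in Saccharomyces cerevisiae BJ5465, induced with galactose for 36–48 hours and stained for 1 hour at 4 °C with 10% biotinylated, detergent-solubilized Sf9 membrane reagent. Cells were enriched on streptavidin microbeads and then FACS-sorted, with low and high (top ~1%) gates set on anti-HA fluorescence for expression and streptavidin fluorescence for reagent binding. Each polyreactivity label reflects the gate a clone came from. Genes were amplified by colony PCR, sequenced by MiSeq 2 × 250 and filtered by CDR length.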

Row | Sequence | polyreactivity (PSR sort gate)
1 | QVQLVESGGGLVQAGGSLRLICAASGRIFGIYAMGWYRQAPGKERELVARITGGGSTNYADSVKGRFTISRDNPKNTVYLQMNSLNPEDTAVYYCAANVRRIVGNITRYDYWGQGTQVTVSS | low polyreactivity
2 | QVQLVESGRGLFQAGGSLRLSCAASGSTFYTNAMVWYRQAPGKEWELVATITSSGGITSYADSVKGRFTISRDNAKITVYLHMNSLKPEDTAVYYCAADFGASYDTHEYGYWGQGTQVTVSS | low polyreactivity
3 | QVQLVESGGGLVQAGGSLRLSCAASGSTFGFNAMGWYRPAPGKERELVAAINESGGDTYYADSVKGRFTISRDNAKNTVYLQMNSLKPEDTAVYYCAADEPSSVYGILVELEYWGQGTQVTVSS | high polyreactivity
4 | QVQLVESGGGLVQAGGSLRLSCAASGLIFITYAMGWYRQAPGKERELVATITLRGGSTYYADSVKGRFTISRDNAKNTVYLQMNSLKPEDTAVYYCAADVGYWGRSSGYPSDDYDYWGQGTQVTVSS | low polyreactivity
5 | QVQLVESGGGLVQAGGSLRLSCAASGIIFDDYAMGWYRQAPGKERELVAAITDSGGSTYYADSVKGRFTISRDNAKNTVYLQMNSLKPEVTAVYYCAARTQRRVNRVGYRSNYYYWGQGTQVTVSS | low polyreactivity
6 | QVQLVESGGGLVQAGGSLSLSCAASGRTFGPYAMGWYRKAPGKERELVAVISGRGTSTYYADSVKGRFTISRDNAKNTVYLQMNSLKPEDTAVYYCNADYGSWYWGFDYWGQGTQVTVSS | low polyreactivity
7 | QVQLVESGGGLVQAGGSLRLSCAASGLTFRLNAMGWYRQAPGKERELVAAITSIADRTYYADSVKGRFTISRDNAKNTVYLQMNSLKPEDTAVYYCNVTPRRAQVRIGNYWGQGTQVTVSS | high polyreactivity
8 | QVQLVESGGGLVQAGGSLRLSCAASGRIFYYYVMGWYRQAPGKEREFVAAISWSASNTYYADSVKGRFTISRDNAKNTVYLQMNSLKPEDTAVYYCAADTLWLDWQGYDYWGQGTQVTVSS | low polyreactivity
9 | QVQLVESGGGLVQAGGSLRLSCAASGSTFHRYAMGWSRQAPGKERELVAAISLSGGRTYYADSVKGRFTISRDNAKNTVYLQMNSLKPEDSAVYYCNALVPSGNGDHDYWGQGTQVTVSS | high polyreactivity
10 | QVQLVESGGGLVQAGGSLRLSCAASGSIFRNYAMGWYRQAPGKERELVAVITQRGGRTYYADSVKGRFTISRDNAKNTVYLQMNSLKPEDTAVYYCAASYRGVPEYDSWGQGTQVTVSS | low polyreactivity
11 | QVQLVESGGGLVQAGVSLRLSCAASGRTFEYNAMGWYRQAPGKERELVATIRYSGTSTYADSVKGRFTISRDNAKNTVYLQMNSLKPEDSAVYYFAKQVRYYGYKYNYWGLGTQVTVSS | high polyreactivity
12 | EEELVESGGGLVQAGCSLRLSCAATGSTIIWNAMGWYIQAPGKERELVAAITRSGGRTYYADSVKGRFTISRDNAKNTVYLLMNSLIPEDTAVYYCAAVIWGYYYGGKYVYYYPYGYWGQGTQVTVSS | high polyreactivity
13 | QVQLVESGGGLVQAGGSLRLSCAASGRTFAYNTMGWYRQAPGKERELVAAITSGGSTYYADSVKGRFTISRDNAKNTVYLQINSLKPEDTAVYYCSAVDYWDYFYWRDDYWGQGTQVTVSS | low polyreactivity
14 | QVQLVESGGGLVQAGGSLRLSCAASGFIIYRNPMGWYRQAPGKERELVAGISSGGSTNYADSVKGRFTISRDNEKNTVYLQMNSLKPEDTAVYYCASRVYALWFGRYDYWGQGTQVIVSS | high polyreactivity
15 | QVQLVESGGGLVQAGGSLRLSSGASGRIFAVYAMGWYRQAPGKERELVAAISYIGGSTYYADSVKGRFTISRDNAKNSVYLQMNSLKPEDTAVYYCATDSHDDTGAYDYWGQGTQVTVSS | low polyreactivity
16 | QVQLQESGVGLVQAGGSLRLSCAASGTIFRISDMGSYRQAPGKEREFVAAITYGANTYYADSGKGRFTISRDNAKNTVYLQMNSLKPEDTAVYYWAVPPVKETILDYWGQGTQVTVSS | low polyreactivity
17 | QVQLVESGGGLVQAGGSLRLSCAASGSIFDYYAMGWYRQAPGKERELVATITSGVSTYYADSVKGRFTISRDNAKNTVYLQMNSLKPEDTAVYYCARDYAKSQDLYKYDYWGQGTQVTVSS | low polyreactivity
18 | QVQLVESGGGLVQAGGSLRLSCAASGSIFGTNAMGWYRQAPGKERELVAAIDGGSTTYYADSVKGRFTISRDNAKNTVYLQMNSLKPEDTAVYYCAADGTRYLNYEGYAGYEYWGQGTQGTVSS | low polyreactivity
19 | QVQLVESGGGLVQAGGSLRLSCAASGFIFPYDAMGWYRQAPGKERELVAAITYRDGSTYYADSVKGRFTISRDNAKNTVYLQMNSLKPEDTAVYYCAADRYVYWDLYGYWGQGTQVTVSS | low polyreactivity
20 | QVQLVESGGGLVQAGGSLRLSCAASGSIFPVNTMGWYRQAPGKERELVAAITQRGGRTYYADSVKGRFTISRDNAKNTVYLQMNSLKPEDTAVYYCNRDLGAGGYDYWGQGTQVTVSS | low polyreactivity
21 | QVQLVESVGGLVQAGGSLRLSCAASGSTIANYAMGWYRQAPGKERELVARIRHSDGSTYYADSVKGRFTISRDNAKNTVYLQMNSLKPEDTAVYYCNVAYPRYRGNPRQSGMGYWGQGTQVTVSS | high polyreactivity
22 | QVQLVESGGGLVQAGGSLRLSCAASGSTFGFYAMGGYRQAPGKERELVAVISSGGGTNYADSVKGRFTISRDNAKNTVYLQMNSLKPEDTAVYYCAASRFALSGGYDYWGQGTQVTVSS | low polyreactivity

Row | Sequence | polyreactivity (PSR sort gate)
23 | QVQLEESGGGLVQAGGSLRLSCAASGSTFTFYAMGRYRQAPGKERELVAAINGRGGSTYYADSVKGRFTISRDNAKNTVYLQMNSLKPEDTAVYYCATRLYYSVRYNMGYWGQGTQVTVSS | high polyreactivity
24 | QVQLVESGGGLVQAGGSLRLSCAASGSIFWTIAMGWYRQSPGKERELVASIHSSDASTDYADSVKGRFTISRDNAKNTVYLKMNSLKPEDTAVYYCNAAGAYPYYSEDYYWGQGTQVTVSS | low polyreactivity
25 | HVQLVESGGGLVQAGGSLRLSCAASGRIFPGYAMGWYRQAPGKERELVAGISNDASTNYADSVKGRFTISRDNAKNTVYLQMNSLKPEDTAVYYCAAEIYYLSVPRYDYWGQGTQVTVSS | low polyreactivity
26 | QVQLVESGGGLVQAGGSLRLSCAASGFIFAYNAMGWYRQAPGKEREFVAAISRSGGSTRYADSVKGRFTISRDNAKNTVYLQMNSLKPEDTAVYYCAARSGSWGQGTQVTVSS | high polyreactivity
27 | QVQLVESGGGLVQAGGSLRLSCAASGRIFSNYAMGWYRQAPGKERELVAAISSSGGRTYYADSVKGRFTISRDNAKNTVYLQMNSLKPEDTAVYYCARRHTGTKFAFYYWGQGTQVTVSS | high polyreactivity
28 | QVQLVESGGGLVQAGGSLRLSCAASGFIFRGYAMGWYRQAPGKERELVAAISRSGGSTYYADSVKGRFTISRDNAKNTVYLQMNSLKPEDTAVYYCAARSFYSKGYDYWGQGTQVTVSS | high polyreactivity
29 | QVQLVESGGGLVQAGGSLRLSCAASGRIFAYYLMGCYRQAPGKEREFVAAISWSGGRTYYADSVKGRFTISRDNAKNTVYLQMNSLKPEDTAVYYCNAGRPLWLAYGMDYWGQGTQVTVSS | low polyreactivity
30 | QVQLVESGGGLVQAGGSLRLSCAASGSIIDYNVMGWYRQAPGKEREFVAGISSTGGSTYYADSVKGRFSNSRDNAKHTVYLQMNSLKPEDTAVYYCAAYWNRAFRLDYWGQGTQVTVSS | high polyreactivity
31 | QVQLVESGGGLVQAGGRLRLSCAASGRIFGVNAMGWYRQAPGKERELVAVISSGGSTYYADSVKGRFTISRDNAKNTVYLQMNSLKPEDTAVYYCNAVVGRWFPYNLSDYWGQGTQVTVSS | low polyreactivity
32 | QVQLVESGGGVVQAGGSLRLSCAASGRIFGPYTMGWYRQAPGKERELVARISRRGGSTYYADSVKGRFTISRDNAKNTVYLQMNSLKPEDTAVYYCARSQAVYDGWFAKFGYWGQGTQVTVSS | low polyreactivity
33 | QVQLVESGGGLVQAGGSLRLSCAASGSTFYHNVRGWYRPAPGKERELVASIDTGDSTNYADSVKGRFTISRDNAKNTVYFQMNSLTPEDTAVYYCNADSYAALNKRGYDYWGQGTQVTVSS | low polyreactivity
34 | QVQLVESGGGLVQAGGSLRLSCAASGFTFRVYAMGWYRQAPGKERELVAAITQRGGSTYYADSVKGRFTISRDNSKNTVYLQMNRLNTEDTAVYYCNKFAGQPTYDYWGQGTQVTVSS | high polyreactivity
35 | QDQLVESGGGLVQAGGSLRLSCAASGRTFNYYGMGWYRQAPGKERELVAAISRGGTTNYADSVKGRFTISRDNAKNTVYLQMNSLKPEDTAVYYCAKGRSHWHSYQYVRPNYDYLGQGTQVTVSS | high polyreactivity
36 | QVQLVESGGGLVQAGGSLRLSCAASGSTLSVNAMGWYRQAPGKERELVAAIDFDGGDTYYADSVKGRFTISRDNAKNTVYLQMKSLKPEDTAVYFCAADIGGQYDYLADDYWGQGNQVTVSS | low polyreactivity
37 | QVQLVESGGGLVQAGGSLRLSCAASGSTFGRYAMGCYIQAPGKERELVAAITRSGGRTYYADSVKGRFTISRDNAKNTVYLQMNSLIPEDTAVYYCAARSRRRFDWGQGTQVTVSS | high polyreactivity
38 | QVQLVESGGGLVQAGGSLRLSCASSGSTFTPNAMGWYRQAPGKERELVASNYTTGGNTYYADSVKGRFTNSRDNAKNTVYLQMNSLKPEDTAVYYCNARQALVWKWSWYSPGYDYWGQGTQVTVSS | low polyreactivity
39 | QVQLLETGGGLVQAGVSLRLSSAASGRTFWTNGMGWYRQAPGKERELVASISTSGGRTYYADSVKGRFTISRDNSKNTVYLQMNSLKPEDTAVYYCAARALSHGARYDYWGQGTQVNVSS | high polyreactivity
40 | QVQLVESGGGLVQAGVRLRLSCAASGIIFRTYAMGWYRRAPGKERELVADITWSDGSTYYADSVKGRFTISRDNAKNTVYLQMNSLKPEDTAVYYCNADVLSDDSWWSYDYWGQGTQVTVSS | high polyreactivity
41 | QVQLVESGGGLVQAGGSLRLSCAASGFIFYNYALGWYRQAPGKERELVAAISASGGRSYYADSVKGRFTISRDNAKNTVYLQMNRLKPEDTAVYYCNARVNYKGYDYWGQGTQVTVSS | high polyreactivity
42 | QVQLVESGGGLVQAGGSLRLSCAASGRIIWSNTMGWYRQAPGKESELVAASSGRGGSTYYADSVKGRFTISRDNAKNTVYLQMNSLKPEDTAVYYCAAKPTRSRKIYEYWGQGTQVTVSS | low polyreactivity
43 | QVQLVESGGGLVQAGGSLRLTCAASGLILYWYAMGLYRQAPGTEMELVAAISISGGSTYYADSVKGRFTISRDNAKNTVYLQMNSLKPEDTAVYYCAAVYFYSWEGDGDYWGQGTQVTVSS | low polyreactivity
